Reference: PMC10577170 (2023)
One block for each binder: values may come before it.

Key:
[1] = target: T1, CSPG4 (chondroitin sulfate proteoglycan 4) peptide on HLA-C*07:02 (human); test: cytokine release
T1 peptide: PHIIFPHGSL

[2] = target: T2, CSPG4 (chondroitin sulfate proteoglycan 4) peptide on HLA-C*07:02 (human); test: cytokine release
T2 peptide: HIIFPHGSL

[3] = target: T3, CSPG4 (chondroitin sulfate proteoglycan 4) peptide on HLA-C*07:01 (human); test: killing
T3 peptide: HIIFPHGSL

B3: 2Cα-11Cβ cTCR (TCR)
alpha TRAV35*02 TRAJ34*01 CDR3: CAGSYNTDKLIF
beta TRBV28*01 TRBJ2-2*01 CDR3: CASSYDWGGELFF
binding result [3]: recognises

B4: 11Cα-2Cβ cTCR (TCR)
alpha TRAV12-2*02 TRAJ45*01 CDR3: CAVNAAGGGADGLTF
beta TRBV3-1*01 TRBJ2-1*01 CDR3: CASSQGWTRNEQFF
binding result [3]: no recognition

Continued, in another order:

binding result [1]: no recognition
binding result [2]: no recognition
B1: 2C/165 TCR (TCR)
alpha TRAV35*02 TRAJ34*01 CDR3: CAGSYNTDKLIF
beta TRBV3-1*01 TRBJ2-1*01 CDR3: CASSQGWTRNEQFF
binding result [3]: recognises

binding result [1]: no recognition
binding result [2]: no recognition
B2: 11C/73 TCR (TCR)
alpha TRAV12-2*02 TRAJ45*01 CDR3: CAVNAAGGGADGLTF
beta TRBV28*01 TRBJ2-2*01 CDR3: CASSYDWGGELFF
binding result [3]: recognises
